{"source": "patent US20180193477A1", "about": "(Zymeworks, published 2018)", "binders": {"B1": {"name": "v15193, humanized bispecific anti-CD3-CD19 antigen-binding construct (humanized HD37 Fab / humanized OKT3 scFv hVH1/hVL2) (bispecific antibody, human IgG1, kappa, L234A L235A)", "heavy": "not shown", "chain": "QVQLVQSGGGVVQPGRSLRLSCKASGYTFTRYTMHWVRQAPGKGLEWIGYINPSRGYTNYNQKVKGRFTISTDKSKNTAYLQMDSLRAEDTGVYFCARYYDDHYSLDYWGQGTLVTVSSVEGGSGGSGGSGGSGGVDDIQMTQSPSSLSASVGDRVTITCSASSSVSYMNWYQQKPGKAPKRLIYDTSKLASGVPSRFSGSGSGTDYTLTISSLQPEDAATYYCQQWSSNPFTFGQGTKLEIKAAEPKSSDKTHTCPPCPAPEAAGGPSVFLFPPKPKDTLMISRTPEVTCVVVSVSHEDPEVKFNWYVDGVEVHNAKTKPREEQYNSTYRVVSVLTVLHQDWLNGKEYKCKVSNKALPAPIEKTISKAKGQPREPQVYVLPPSRDELTKNQVSLLCLVKGFYPSDIAVEWESNGQPENNYLTWPPVLDSDGSFFLYSKLTVDKSRWQQGNVFSCSVMHEALHNHYTQKSLSLSPG", "light": "DIQLTQSPSSLSASVGDRATITCRASQSVDYEGDSYLNWYQQKPGKAPKLLIYDASNLVSGIPSRFSGSGSGTDFTLTISSVQPEDAATYYCQQSTEDPWTFGCGTKLEIKRTVAAPSVFIFPPSDEQLKSGTASVVCLLNNFYPREAKVQWKVDNALQSGNSQESVTEQDSKDSTYSLSSTLTLSKADYEKHKVYACEVTHQGLSSPVTKSFNRGEC", "notes": "also called variant 15193"}, "B2": {"name": "v15192, humanized bispecific anti-CD3-CD19 antigen-binding construct (humanized HD37 Fab / humanized OKT3 scFv hVH1/hVL1) (bispecific antibody, human IgG1, kappa, L234A L235A)", "heavy": "not shown", "chain": "B1 chain with L183W", "light": "B1 light", "notes": "also called variant 15192"}, "B3": {"name": "v15195, humanized bispecific anti-CD3-CD19 antigen-binding construct (humanized HD37 Fab / humanized OKT3 scFv hVH2/hVL2) (bispecific antibody, human IgG1, kappa, L234A L235A)", "heavy": "not shown", "chain": "B1 chain with K74N", "light": "B1 light", "notes": "Unconjugated construct as used in SPR and whole cell FACS; also called variant v15195"}, "B4": {"name": "v15194, humanized bispecific anti-CD3-CD19 antigen-binding construct (humanized HD37 Fab / humanized OKT3 scFv hVH2/hVL1) (bispecific antibody, human IgG1, kappa, L234A L235A)", "heavy": "not shown", "chain": "B1 chain with K74N, L183W", "light": "B1 light", "notes": "also called variant 15194"}}, "key": {"[1]": {"target": "T1, Recombinant CD3epsilon/delta Fc fusion protein (Sino Biological) (UniProt P07766 23-126; P04234 22-105)", "T1 construct": "Bought reagent; also called recombinant CD3 fusion protein; CD3 antigen; not shown: Fc part of the bought fusion protein; not described", "T1 sequence (P07766 23-126, stated change not applied, chain 1 of 2)": "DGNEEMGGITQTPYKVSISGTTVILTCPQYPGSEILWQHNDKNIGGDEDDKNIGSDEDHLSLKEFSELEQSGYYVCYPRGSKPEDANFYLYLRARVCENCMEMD", "T1 sequence (P04234 22-105, stated change not applied, chain 2 of 2)": "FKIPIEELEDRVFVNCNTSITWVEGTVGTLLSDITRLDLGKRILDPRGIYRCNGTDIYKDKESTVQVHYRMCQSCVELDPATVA", "test": "SPR, BioRad ProteOn XPR36, 25 C, anti-Fc capture chip, Equilibrium Fit model, mean of three runs"}, "[2]": {"target": "T1, Recombinant CD3epsilon/delta Fc fusion …", "test": "SPR (summary of Example 6)"}, "[3]": {"target": "T2, CD3 on human CD3+ Jurkat T cells (human, UniProt P07766 23-207)", "T2 construct": "whole, on cells; CD3 is a complex of several chains on the cell; also called CD3 epsilon; CD3e", "T2 sequence (P07766 23-207)": "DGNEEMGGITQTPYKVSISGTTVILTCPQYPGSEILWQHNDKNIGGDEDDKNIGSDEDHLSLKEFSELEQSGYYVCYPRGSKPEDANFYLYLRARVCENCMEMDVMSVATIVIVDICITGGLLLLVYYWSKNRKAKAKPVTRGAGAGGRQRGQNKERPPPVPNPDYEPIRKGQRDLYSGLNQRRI", "test": "whole cell FACS binding on Jurkat cells, apparent affinity"}}, "note": "Residue numbers refer to the chain shown, from its start."}
{"binder": "B1", "values": [{"measurement": "Kd", "setting": "[1]", "value": 370, "unit": "nM"}]}
{"binder": "B2", "values": [{"measurement": "binding result", "setting": "[2]", "value": "binds"}]}
{"binder": "B3", "values": [{"measurement": "Kd", "setting": "[1]", "value": 427, "unit": "nM"}, {"measurement": "Kd", "setting": "[3]", "value": 44.7, "unit": "nM"}]}
{"binder": "B4", "values": [{"measurement": "Kd", "setting": "[1]", "value": 349, "unit": "nM"}]}
